These results are taken from the supplement of paper PMC9112550, “Optimization of the antimicrobial peptide Bac7 by deep mutational scanning” (BMC Biology, 2022).

The data set relates to Escherichia coli TOP10. The data set can be described thus: shrunken log2 fold change of peptide-encoding DNA abundance (4.5 h post-induction vs induction); higher = less antimicrobial activity (less host growth inhibition). The settings on record: time post-induction: 4.5 h; library: site-saturation at positions 5, 18, 19, 20.
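Also: peptides expressed intracellularly from a pBAD plasmid library in pooled LB shake-flask culture, induced with 0.3% L-arabinose, DNA abundance read by NGS, three biological replicates, DESeq2 with apeglm shrinkage.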

For the sequence RRIRHRPPRLPRPRPRPSLGPRP, the “shrunken log2 fold change” value stood at 0.165. For RRIRERPPRLPRPRPRPRASPRP, the “shrunken log2 fold change” value was -0.0261. The value for RRIRGRPPRLPRPRPRPDTGPRP was -0.0756. For RRIRARPPRLPRPRPRPWVYPRP, the “shrunken log2 fold change” value was -0.0996. The value for RRIRNRPPRLPRPRPRPHRFPRP was 0.0175; that for RRIRARPPRLPRPRPRPSETPRP was 0.176.

On to RRIRLRPPRLPRPRPRPYWTPRP, for which the “shrunken log2 fold change” value is -0.435. For RRIRARPPRLPRPRPRPGVWPRP, the “shrunken log2 fold change” value is 1.55. As for RRIRPRPPRLPRPRPRPTALPRP, the figure is 0.0271. For the sequence RRIRLRPPRLPRPRPRPLWKPRP, the “shrunken log2 fold change” value is -0.0337. The value for RRIRPRPPRLPRPRPRPDVLPRP was -0.709; that for RRIRLRPPRLPRPRPRPTYWPRP was -0.256. On to RRIRARPPRLPRPRPRPFFQPRP, for which the “shrunken log2 fold change” value was determined as 0.107.

Take RRIRARPPRLPRPRPRPLELPRP: the “shrunken log2 fold change” value came to 0.386. The value for RRIRQRPPRLPRPRPRPGTWPRP was 0.0676. As for RRIRDRPPRLPRPRPRPYPNPRP, the figure is -0.0838.

RRIRARPPRLPRPRPRPFRNPRP: the “shrunken log2 fold change” value is -0.575. As to RRIRSRPPRLPRPRPRPIDTPRP, the “shrunken log2 fold change” value was -0.117. As for RRIRDRPPRLPRPRPRPELKPRP, the figure is -0.00616; as for RRIRQRPPRLPRPRPRPVMKPRP, -0.212. As for RRIRSRPPRLPRPRPRPKAGPRP, the figure is 0.19. RRIRMRPPRLPRPRPRPVPEPRP: the “shrunken log2 fold change” value is 1.21. The value for RRIRTRPPRLPRPRPRPCTKPRP was 0.0197. With RRIRRRPPRLPRPRPRPIAPPRP, the “shrunken log2 fold change” value is 0.702.

In the case of RRIRDRPPRLPRPRPRPENQPRP, the “shrunken log2 fold change” value came out at 0.351. The value for RRIRGRPPRLPRPRPRPYLYPRP was -0.215. As for RRIRDRPPRLPRPRPRPKFTPRP, the figure is -0.0602; as for RRIRVRPPRLPRPRPRPPEFPRP, 0.265. As for RRIRVRPPRLPRPRPRPDRTPRP, the “shrunken log2 fold change” value was -0.252. As for RRIRKRPPRLPRPRPRPGEFPRP, the figure is 0.242. The value for RRIRMRPPRLPRPRPRPHCWPRP was -0.207; that for RRIRNRPPRLPRPRPRPLNFPRP was -0.71.

Regarding RRIRPRPPRLPRPRPRPAHKPRP, the “shrunken log2 fold change” value is -0.46.

RRIRSRPPRLPRPRPRPPCSPRP: the “shrunken log2 fold change” value turned out to be 0.198. The value for RRIRSRPPRLPRPRPRPNTPPRP was -0.616; that for RRIRSRPPRLPRPRPRPEIDPRP was 0.166; that for RRIRNRPPRLPRPRPRPFVKPRP was -0.669. In the case of RRIRKRPPRLPRPRPRPFLTPRP, the “shrunken log2 fold change” value was -0.206. On to RRIRLRPPRLPRPRPRPINQPRP, for which the “shrunken log2 fold change” value was -0.321.

As for RRIRCRPPRLPRPRPRPNFTPRP, the “shrunken log2 fold change” value was -0.158.

As for RRIRVRPPRLPRPRPRPMVEPRP, the “shrunken log2 fold change” value was 0.303.

Consider RRIRPRPPRLPRPRPRPCLDPRP, for which the “shrunken log2 fold change” value is -0.251. RRIRMRPPRLPRPRPRPAPYPRP: the “shrunken log2 fold change” value was 0.576.

With RRIRQRPPRLPRPRPRPLQQPRP, the “shrunken log2 fold change” value was -0.123. As for RRIRERPPRLPRPRPRPFYPPRP, the “shrunken log2 fold change” value was -0.834. The value for RRIRCRPPRLPRPRPRPKIPPRP was -0.284.

Take RRIRDRPPRLPRPRPRPPPAPRP: the “shrunken log2 fold change” value is 0.924. For RRIRKRPPRLPRPRPRPADIPRP, the “shrunken log2 fold change” value was -0.075. As for RRIRTRPPRLPRPRPRPWIWPRP, the figure is -0.0307; as for RRIRIRPPRLPRPRPRPRNMPRP, -0.243.

RRIRGRPPRLPRPRPRPRGCPRP: the “shrunken log2 fold change” value is 1.37. On to RRIRNRPPRLPRPRPRPRHLPRP, for which the “shrunken log2 fold change” value is -0.337. For the sequence RRIRPRPPRLPRPRPRPASWPRP, the “shrunken log2 fold change” value was found to be 0.362. The value for RRIRFRPPRLPRPRPRPPPCPRP was 0.898; that for RRIRKRPPRLPRPRPRPGCAPRP was 0.82; that for RRIRARPPRLPRPRPRPRCPPRP was 0.248. The value for RRIRKRPPRLPRPRPRPSEIPRP was 0.157; that for RRIRGRPPRLPRPRPRPQMVPRP was 0.166; that for RRIRVRPPRLPRPRPRPQHRPRP was 0.0105. Take RRIRPRPPRLPRPRPRPLMCPRP: the “shrunken log2 fold change” value is -0.122. As for RRIRQRPPRLPRPRPRPVMGPRP, the figure is 0.0224; as for RRIRMRPPRLPRPRPRPVVMPRP, -0.0363; as for RRIRVRPPRLPRPRPRPKNQPRP, -0.173.

Turning to RRIRTRPPRLPRPRPRPLLEPRP, the “shrunken log2 fold change” value is 0.024.

On to RRIRARPPRLPRPRPRPGGWPRP, for which the “shrunken log2 fold change” value came out at 1.26. The value for RRIRARPPRLPRPRPRPWKHPRP was -0.0402; that for RRIRQRPPRLPRPRPRPTCAPRP was 0.406; that for RRIRIRPPRLPRPRPRPYTDPRP was -0.0335. Turning to RRIRKRPPRLPRPRPRPDYSPRP, the “shrunken log2 fold change” value was -0.168.

Take RRIRMRPPRLPRPRPRPHIKPRP: the “shrunken log2 fold change” value is -0.501. On to RRIRMRPPRLPRPRPRPKEQPRP, for which the “shrunken log2 fold change” value amounted to 1.26. In the case of RRIRVRPPRLPRPRPRPSLAPRP, the “shrunken log2 fold change” value was -0.0683. For RRIRRRPPRLPRPRPRPAWWPRP, the “shrunken log2 fold change” value turned out to be 1.01. As to RRIRGRPPRLPRPRPRPRMPPRP, the “shrunken log2 fold change” value turned out to be 0.605.

As for RRIRTRPPRLPRPRPRPIVCPRP, the “shrunken log2 fold change” value was -0.246. Turning to RRIRFRPPRLPRPRPRPHIWPRP, the “shrunken log2 fold change” value was -0.57. The value for RRIRLRPPRLPRPRPRPYKLPRP was -0.0961; that for RRIRLRPPRLPRPRPRPFMSPRP was -1.39. The value for RRIRKRPPRLPRPRPRPHMFPRP was -0.469.

In the case of RRIRIRPPRLPRPRPRPRCQPRP, the “shrunken log2 fold change” value turned out to be 0.00087.

As for RRIRPRPPRLPRPRPRPKDEPRP, the “shrunken log2 fold change” value was 0.363. On to RRIRKRPPRLPRPRPRPKQWPRP, for which the “shrunken log2 fold change” value amounted to 0.216. In the case of RRIRGRPPRLPRPRPRPYKDPRP, the “shrunken log2 fold change” value is -0.322. Take RRIRHRPPRLPRPRPRPGQLPRP: the “shrunken log2 fold change” value was determined as 0.174. For RRIRYRPPRLPRPRPRPFFPPRP, the “shrunken log2 fold change” value is -0.682. The value for RRIRQRPPRLPRPRPRPVSMPRP was -0.181. For RRIRNRPPRLPRPRPRPSGFPRP, the “shrunken log2 fold change” value was found to be 0.0185. As for RRIRMRPPRLPRPRPRPWLTPRP, the figure is 0.158; as for RRIRERPPRLPRPRPRPKQTPRP, -0.0871; as for RRIRGRPPRLPRPRPRPPRKPRP, 1.26. As to RRIRTRPPRLPRPRPRPCDFPRP, the “shrunken log2 fold change” value worked out at 0.042.
